Assay results: publication PMC2120674

Assays:
[1] = target: two chain urokinase-type plasminogen activator (uPA); experiment: SDS-PAGE of the protease-serpin complex
[2] = target: human urokinase-type plasminogen activator receptor (uPAR) expressed in mouse LB6 clone 19 cells (human) (UniProt Q03405); experiment: radioligand binding
UniProt Q03405, sequence (Q03405 23-305): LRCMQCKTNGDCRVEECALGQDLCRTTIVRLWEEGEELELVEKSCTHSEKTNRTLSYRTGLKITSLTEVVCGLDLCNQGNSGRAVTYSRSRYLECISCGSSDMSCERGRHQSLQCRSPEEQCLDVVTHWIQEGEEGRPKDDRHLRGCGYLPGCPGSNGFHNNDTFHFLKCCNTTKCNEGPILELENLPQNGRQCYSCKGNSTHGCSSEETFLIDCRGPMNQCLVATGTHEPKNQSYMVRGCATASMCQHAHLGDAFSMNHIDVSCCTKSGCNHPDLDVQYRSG

Row | Substance | percent of uPA converted to the complex form [1] [%] | bound radioactivity at 4C (with cycloheximide) [2] [fmol/well] | bound radioactivity at 4C (without cycloheximide) [2] [fmol/well]
1 | plasminogen activator inhibitor type-1 (PAI-1), recombinant active (from UniProt P05121 24-402) (natural protein) | > 90 |  | 
2 | uPA-PAI-1 complex (urokinase with plasminogen activator inhibitor type-1) (from UniProt P05121 24-402) |  | 19.4 | 18.7
